One assay concerns WT mice. Description: Sterile eCIRP-induced inflammation by rmCIRP injection in mice. Type of assay: in vivo, mouse. The conditions noted are these: 4 hours, vs eCIRP alone. On the procedure:
FIG. 5A-5B. eCIRP-induced inflammation is attenuated by MOP3. WT mice were treated according to respective groups: PBS (volume equivalent), rmCIRP (5 mg/kg), or MOP3 (10 μg/kg) co-incubated with rmCIRP (5 mg/kg) for 30 mins prior to r.o. injection. After 4 hours, serum was measured for IL-6 (A) and TNFα (B) levels by ELISA. All experiments were performed 3 times, and all data were used for analysis (N=7-10). Data are expressed as mean±SEM and compared by one-way ANOVA and SNK test. *p<0.05 vs. PBS, #p<0.05 vs. eCIRP.
Adult (8-12 weeks) male, C57BL/6 wild-type (WT) mice (20-30 g) were purchased from Charles River Laboratories. MFG-E8 knockout mice (MFG-E8^−/−) were originally obtained from Dr. Shigekazu Nagata, Osaka University of Japan, and bred following our Institutional Animal Care and Use Committee (IACUC) policies. Age-matched, healthy mice were used in all experiments. Animals were randomly assigned to sham, vehicle, or treatment groups. Concerted effort was made to ensure that a limited number of animals were used in each experiment. […] For the design of in vivo models, sample size calculation was driven by variability, effect size, significance level and power as determined through performance of early feasibility and optimization pilot studies. […]
(§1) The mouse macrophage cell culture supernatants were analyzed for cytokine levels using ELISA kits (BD Biosciences, CA). […] TNF-α and IL-6 levels were measured in cell supernatants by ELISA in accordance with respective manufacturers' instructions (BD Biosciences, CA). Blood was collected, centrifuged at 4,000 RPM for 10 minutes, and sera was separated and analyzed for cytokine levels using ELISA kits (BD Biosciences, CA). TNF-α and IL-6 levels in the serum were measured by ELISA in accordance with respective manufacturers' instructions.
Serum levels of aspartate transaminase (AST), alanine transaminase (ALT), and lactate dehydrogenase (LDH) were determined using calorimetric enzymatic assays (Pointe Scientific, Canton, MI) according to the manufacturer's instructions.

The subject of assay [1] is murine peritoneal cavity (PerC) macrophages. Description: eCIRP-induced cytokine release in peritoneal cavity macrophages. The conditions noted are these: WT PerC macrophages, eCIRP treatment. Type of assay: cell-based, mouse. On the procedure: Murine peritoneal cavity (PerC) macrophages were isolated from adult, WT mice and MFG-E8“ ” mice. Briefly, mice were euthanized using CO2 asphyxiation. Peritoneal fluid and cells were isolated using peritoneal lavage by washing ice-cold Ca^+2 and Mg^+2 free Hank's Balanced Salt Solution (HBSS) with 2% fetal bovine serum (FBS, Solon, Ohio). Total PerC macrophages were isolated by centrifugation at 400 g for 10 minutes at 4° C. After centrifugation, the cell pellet was suspended in culture media containing RPMI 1640 (Invitrogen) supplemented with 25 mM HEPES, 2 mM glutamine, 10% FBS, penicillin (100 IU/mL) and streptomycin (100 IU/mL). PerC macrophages were allowed to adhere in 6-well plates for 4 hours in humidified incubator at 37 °C. […] Adhered PerC macrophages were then mechanically detached from the plate and counted. […]
as §1

[2] abbreviates: rmCIRP 5 mg/kg co-incubated 30 min with test substance, r.o. injection.

B1: milk fat globule-epidermal growth factor—factor VIII (protein, listed as Mus musculus)
chain: MQVSRVLAALCGMLLCASGLFAASGDFCDSSLCLNGGTCLTGQDNDIYCLCPEGFTGLVCNETERGPCSPNPCYNDAKCLVTLDTQRGDIFTEYICQCPVGYSGIHCETETNYYNLDGEYMFTTAVPNTAVPTPAPTPDLSNNLASRCSTQLGMEGGAIADSQISASSVYMGFMGLQRWGPELARLYRTGIVNAWTASNYDSKPWIQVNLLRKMRVSGVMTQGASRAGRAEYLKTFKVAYSLDGRKFEFIQDESGGDKEFLGNLDNNSLKVNMFNPTLEAQYIKLYPVSCHRGCTLRFELLGCELHGCSEPLGLKNNTIPDSQMSASSSYKTWNLRAFGWYPHLGRLDNQGKINAWTAQSNSAKEWLQVDLGTQRQVTGIITQGARDFGHIQYVASYKVAHSDDGVQWTVYEEQGSSKVFQGNLDNNSHKKNIFEKPFMARYVRVLPVSWHNRITLRLELLGC
Turning to B1, in the assay on WT mice (setting [2]), the “serum IL-6 levels” value is on record as “significantly reduced” and the “serum TNFα levels” value was “significantly reduced”. Also, the “LDH levels (tissue injury)” value in the assay on WT mice (rmCIRP 5 mg/kg with rmMFG-E8 40 μg/kg) is “significantly reduced”. In assay [1], the “IL-6 levels in cell supernatants” value was “reduced levels” and the “TNFα levels in cell supernatants” value is “reduced levels”.
